Experimental data reported in publication PMC5624926.

Assays:
[1] = molecular target: dCD22_(20–687) (human) (UniProt P20273); assay: BLI; Octet RED96; CD22_(20–687) forms loaded on Ni-NTA biosensors; Fab in solution 500 to 62.5 nM; 1x PBS pH 7.4, 0.002% Tween, 0.01% BSA; 1:1 fit; triplicate
[2] = molecular target: CD22_(20–687)F (human) (UniProt P20273); assay: as above
[3] = molecular target: dCD22_(20–687) (human) (UniProt P20273); assay: ITC; Auto-ITC200; 5 μM CD22 in the cell, 50 μM Fab in the syringe; 35 °C; triplicate
[4] = molecular target: CD22_(20–687)F (human) (UniProt P20273); assay: as above

B1: epratuzumab Fab (Fab, V domains shown)
VH: QVQLVQSGAEVKKPGSSVKVSCKASGYTFTSYWLHWVRQAPGQGLEWIGYINPRNDYTEYNQNFKDKATITADESTNTAYMELSSLRSEDTAFYFCARRDITTFYWGQGTTVTVSS
VL: DIQLTQSPSSLSASVGDRVTMSCKSSQSVLYSANHKNYLAWYQQKPGKAPKLLIYWASTRESGVPSRFSGSGSGTDFTLTISSLQPEDIATYYCHQYLSSWTFGGGTKLEIK
Kd [1]: 24 nM
Kd [2]: 327 nM
Kd [3]: 58 nM
Kd [4]: 188 nM
